Measurements taken from IntAct's records for PubMed 21946560.

B1: DNA repair protein RAD9 (Saccharomyces cerevisiae), P14737 (parent)
chain: MSGQLVQWKSSPDRVTQSAIKEALHSPLADGDMNEMNVPVDPLENKVNSTNIIEGSPKANPNPVKFMNTSEIFQKSLGLLDESPRHDDELNIEVGDNDRPNANILHNERTPDLDRIANFFKSNRTPGKENLLTKYQSSDLEDTPLMLRKKMTFQTPTDPLEQKTFKKLKSDTGFCYYGEQNDGEENASLEVTEADATFVQMAERSADNYDCALEGIVTPKRYKDELSKSGGMQDERVQKTQIMISAESPNSISSYDKNKITGNGRTTRNVNKVFNNNEDNIGAIEEKNPVKKKSENYSSDDLRERNNQIIQSNESEEINELEKNLNVSGRENDVNNLDIDINSAVSGTPSRNNAEEEMYSSESVNNREPSKKWIFRYSKDKTENNSNRSTQIVNNPRTQEMPLDSISIDTQPLSKSFNTETNNELETQIIVSSLSQGISAQKGPVFHSTGQTEEIKTQIINSPEQNALNATFETPVTLSRINFEPILEVPETSSPSKNTMSKPSNSSPIPKEKDTFNIHEREVETNNVFSNDIQNSSNAATRDDIIIAGSSDFNEQKEITDRIYLQLSGKQISDSGSDETERMSPNELDTKKESTIMSEVELTQELPEVEEQQDLQTSPKKLVVEEETLMEIKKSKGNSLQLHDDNKECNSDKQDGTESLDVALIEHESKGQSSELQKNLMQLFPSESQEIIQNRRTIKRRQKDTIEIGEEEENRSTKTSPTKHLKRNSDLDAASIKREPSCSITIQTGETGSGKDSKEQSYVFPEGIRTADNSFLSKDDIIFGNAVWCQYTWNYKFYPGILLEVDTNQDGCWIYFETGRSLTKDEDIYYLDIRIGDAVTFDGNEYVVVGLECRSHDLNIIRCIRGYDTVHLKKKNASGLLGKRTLIKALSSISLDLSEWAKRAKIILEDNEKNKGDAYRYLRHPIRGRKSMTNVLSPKKHTDDEKDINTHTEVYNNEIESSSEKKEIVKKDSRDALAEHAGAPSLLFSSGEIRTGNVFDKCIFVLTSLFENREELRQTIESQGGTVIESGFSTLFNFTHPLAKSLVNKGNTDNIRELALKLAWKPHSLFADCRFACLITKRHLRSLKYLETLALGWPTLHWKFISACIEKKRIVPHLIYQYLLPSGESFRLSLDSPSKGGIIKSNNIFSFYTQFLRGSNLRDQICGVKKMLNDYIVIVWGRSELDSFVKFAFACLSAGRMLTIDLPNIDVDDTEPLLNALDSLVPRIGSELSNRKLKFLIYANENNGKSQMKLLERLRSQISLKFKKFNYIFHTESKEWLIQTIINEDTGFHDDITDNDIYNTISEVR
partner: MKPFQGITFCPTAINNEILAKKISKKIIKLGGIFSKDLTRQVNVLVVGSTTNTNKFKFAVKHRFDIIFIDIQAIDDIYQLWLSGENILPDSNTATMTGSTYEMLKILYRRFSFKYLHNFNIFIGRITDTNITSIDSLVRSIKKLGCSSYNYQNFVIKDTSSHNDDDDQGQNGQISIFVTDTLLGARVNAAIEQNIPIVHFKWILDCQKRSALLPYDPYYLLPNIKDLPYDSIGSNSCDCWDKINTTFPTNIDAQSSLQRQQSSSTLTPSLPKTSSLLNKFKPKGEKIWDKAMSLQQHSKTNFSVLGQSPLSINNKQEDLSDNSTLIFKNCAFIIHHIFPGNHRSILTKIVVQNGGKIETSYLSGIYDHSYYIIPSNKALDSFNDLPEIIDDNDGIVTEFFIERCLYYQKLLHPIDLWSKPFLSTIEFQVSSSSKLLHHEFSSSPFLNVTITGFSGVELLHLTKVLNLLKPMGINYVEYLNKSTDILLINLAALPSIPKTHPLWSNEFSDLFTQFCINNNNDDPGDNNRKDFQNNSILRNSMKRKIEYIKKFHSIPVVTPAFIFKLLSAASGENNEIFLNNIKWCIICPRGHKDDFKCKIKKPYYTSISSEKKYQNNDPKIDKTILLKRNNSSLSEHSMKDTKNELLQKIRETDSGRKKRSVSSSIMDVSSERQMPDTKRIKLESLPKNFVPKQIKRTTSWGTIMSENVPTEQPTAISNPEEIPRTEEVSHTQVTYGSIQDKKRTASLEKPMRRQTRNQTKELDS
B2: DNA replication regulator DPB11 (Saccharomyces cerevisiae), P47027 (parent)
chain: B1 partner
partner: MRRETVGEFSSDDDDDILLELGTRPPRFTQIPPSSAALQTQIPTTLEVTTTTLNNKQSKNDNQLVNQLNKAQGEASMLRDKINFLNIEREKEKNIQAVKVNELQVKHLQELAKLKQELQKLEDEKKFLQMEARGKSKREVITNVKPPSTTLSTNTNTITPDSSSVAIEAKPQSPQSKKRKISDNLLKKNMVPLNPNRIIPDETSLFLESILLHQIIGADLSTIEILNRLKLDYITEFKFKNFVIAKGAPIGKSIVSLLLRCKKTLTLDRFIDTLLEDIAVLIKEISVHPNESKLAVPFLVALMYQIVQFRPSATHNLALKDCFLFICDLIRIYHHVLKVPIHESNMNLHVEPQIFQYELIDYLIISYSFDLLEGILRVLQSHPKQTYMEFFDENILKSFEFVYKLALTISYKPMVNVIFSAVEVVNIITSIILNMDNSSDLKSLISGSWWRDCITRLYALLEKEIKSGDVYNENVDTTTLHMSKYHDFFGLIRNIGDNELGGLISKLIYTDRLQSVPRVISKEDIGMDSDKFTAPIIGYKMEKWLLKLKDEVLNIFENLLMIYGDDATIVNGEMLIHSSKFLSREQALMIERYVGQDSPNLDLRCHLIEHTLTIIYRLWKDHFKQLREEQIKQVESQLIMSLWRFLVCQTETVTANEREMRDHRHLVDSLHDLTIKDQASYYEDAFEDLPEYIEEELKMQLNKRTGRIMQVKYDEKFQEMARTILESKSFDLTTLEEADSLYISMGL

Variants of: B1
Conditions: with dpb11_yeast DPB11, P47027

effect of a mutation on the interaction | Variant
disrupting interaction | T474A
disrupting interaction | S462A

Variants of: B1
Conditions: with dpb11_yeast DPB11, P47027
Remark: another data set of the same source

effect of a mutation on the interaction | Variant
decreasing interaction | T474A

Variants of: B2
Conditions: with lcd1_yeast LCD1, Q04377

effect of a mutation on the interaction | Variant
disrupting interaction | W700A
disrupting interaction | G701A

Variants of: B2
Conditions: with lcd1_yeast LCD1, Q04377
Remark: another data set of the same source

effect of a mutation on the interaction | Variant
decreasing interaction | Y735A
decreasing interaction | G736A

Variants of: B2
Conditions: with lcd1_yeast LCD1, Q04377
Remark: another data set of the same source

effect of a mutation on the interaction | Variant
decreasing interaction | G701A
